Assay results published in patent US20190004052A1 (published 2019).
Non-standard residues stand in square brackets, D forms with d. No end group written: not given here. pS = N[C@@H](COP(=O)(O)O)C(=O)O

Biological target: T1, Phosphopeptide TF1-Pser258 CKEN(pS)PLNVS (human)
T1 construct: Synthetic phosphopeptide
T1 peptide: CKEN[pS]PLNVS
Assay: peptide ELISA, optical density (FIG. 7)

binding result: no binding
B1: hybrid IgG2b anti-TF2-Pser253 monoclonal antibody MAb 680 (antibody, V domains shown)
VH: DVQLQESGPGLVKPSQSLSLTCTVTGYSITSDYAWNWIRQFPGNKLEWMGYISYSGSTSYNPSLKSRISITRDTSKNQFFLQLNSVTTEDTATYYCARIRGYLAMDYWGQGTSVTVSS
VL: DIVMTQAAFSNPVTLGTSASISCRSSKSLLHSNGITYLYWYLQKPGQSPQLLIYQMSNLASGVPDRFSSSGSGTDFTLRISRVEAEDVGVYYCAQNLELPPTFGGGTKLEIKR
notes: The Fab portion of IgM clone 4A6-4B5-1E2 was fused onto murine IgG2b light and heavy chains and made in HEK cells; also called M680; hybrid IgG anti-TF2-pser253 M680
